This is an account of results in patent US20120189540A1 (STEMLINE THERAPEUTICS, published 2012).

The target in assay [1] is transferrin receptor (human) (UniProt P02786). The assay can be described thus: cell-based or functional assay.
For assay [2], the target named is IL-3 receptor alpha subunit (IL3Rα, CD123) (human) (UniProt P26951). The assay can be described thus: flow cytometry on ML-1 cells, isotype control-PE at 10 µg/ml [panel ML-1 (1900/cell].
The target of assay [3] is T1, IL-3 receptor alpha subunit (IL3Rα, CD123) (human, UniProt P26951 19-378).
T1 construct: whole, on cells; also called IL3Rα chain; alpha subunit of the IL-3 receptor
T1 sequence (P26951 19-378): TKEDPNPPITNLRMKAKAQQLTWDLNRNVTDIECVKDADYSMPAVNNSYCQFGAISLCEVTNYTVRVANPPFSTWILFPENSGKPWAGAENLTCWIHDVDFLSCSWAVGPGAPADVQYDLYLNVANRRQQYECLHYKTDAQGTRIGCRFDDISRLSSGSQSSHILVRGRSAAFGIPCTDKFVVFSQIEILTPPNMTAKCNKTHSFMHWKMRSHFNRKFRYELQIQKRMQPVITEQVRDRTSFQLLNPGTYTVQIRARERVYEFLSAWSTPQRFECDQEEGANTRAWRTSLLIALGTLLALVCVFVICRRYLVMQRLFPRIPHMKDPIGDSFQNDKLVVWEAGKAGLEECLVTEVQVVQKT
The assay can be described thus: flow cytometry on TF-1 cells (CD123-expressing), mAb at 0.5 µg/ml, detected with R-PE goat F(ab')2 anti-mouse IgG, MOPC-21 isotype control subtracted [panel A].

transferrin receptor (human), sequence (P02786 whole entry): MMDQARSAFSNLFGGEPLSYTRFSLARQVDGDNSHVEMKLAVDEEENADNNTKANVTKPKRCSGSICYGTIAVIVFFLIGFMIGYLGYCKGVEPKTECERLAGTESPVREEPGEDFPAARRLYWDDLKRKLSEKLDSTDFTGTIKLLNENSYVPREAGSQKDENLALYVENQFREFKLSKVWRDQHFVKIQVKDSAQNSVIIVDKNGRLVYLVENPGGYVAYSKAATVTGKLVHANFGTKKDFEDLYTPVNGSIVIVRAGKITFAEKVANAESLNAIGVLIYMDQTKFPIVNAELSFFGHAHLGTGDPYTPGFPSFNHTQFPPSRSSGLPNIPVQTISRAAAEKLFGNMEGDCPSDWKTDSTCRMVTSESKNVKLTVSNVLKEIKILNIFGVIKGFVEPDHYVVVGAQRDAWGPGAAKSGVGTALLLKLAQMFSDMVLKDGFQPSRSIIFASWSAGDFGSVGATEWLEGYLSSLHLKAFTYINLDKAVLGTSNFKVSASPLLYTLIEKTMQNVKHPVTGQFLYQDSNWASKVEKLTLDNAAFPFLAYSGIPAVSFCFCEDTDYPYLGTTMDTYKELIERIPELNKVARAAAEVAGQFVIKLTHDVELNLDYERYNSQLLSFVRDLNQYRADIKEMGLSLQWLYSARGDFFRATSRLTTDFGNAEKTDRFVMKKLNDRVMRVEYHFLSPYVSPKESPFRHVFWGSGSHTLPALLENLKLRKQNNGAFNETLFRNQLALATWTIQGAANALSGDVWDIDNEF
IL-3 receptor alpha subunit (IL3Rα, CD123) (human), sequence (P26951 19-378): as the sequence (P26951 19-378) above

In assay [1], HB21(Fv)-PE40 (scFv) gave an IC50(ng/ml), cytotoxicity (WST-8 cell viability) on ML-1 of 5.2 ng/mL; an IC50(ng/ml), cytotoxicity (WST-8 cell viability) on Molm-14 of 60 ng/mL; an IC50(ng/ml), cytotoxicity (WST-8 cell viability) on TF-1 of 2.2 ng/mL.
As to isotype control-PE (antibody), the number printed beside the histogram (fluorescence on the FL-2:PE axis, not named on the sheet) in assay [2] was determined as 7.1.

B1: monoclonal antibody 32701 (antibody, V domains shown)
VH: QIQLVQSGPELKKPGETVKISCKTSGYVFTNYGMNWVKQAPGKGFKWMGWMNTNTGEPTSLEDFKGRFAFSLETSASTAYLQINNLKNDDTATYFCARSGGYDPMDYWGQGTSVTVSS
VL: DIVLTQSPASLAVSPGQRATISCRASESVDNYGNTFMHWYQQKPGQPPKLLIYRASNLESGIPARFSGSDSRTDFTLTINPVEADDVATYYCQQSKEDPPTFGAGTKLELK
For B1, in assay [3], the binding result is “binds”.

B2: monoclonal antibody 32716 (antibody, V domains shown)
VH: QIQLVQSGPELKKPGETVKISCKASGYIFTNYGMNWVKQAPGKSFKWMGWINTYTGESTYSADFKGRFAFSLETSASTAYLHINDLKNEDTATYFCARSGGYDPMDYWGQGTSVTVSS
VL: DIVLTQSPASLAVSLGQRATISCRASESVDNYGNTFMHWYQQKPGQPPKLLIYRASNLESGIPARFSGSGSRTDFTLTINPVEADDVATYYCQQSNEDPPTFGAGTKLELK
As to B2, the binding result in assay [3] was “binds”.

B3: monoclonal antibody 26292 (antibody, V domains shown)
VH: QVQLQQPGAELVRPGASVKLSCKASGYTFTSYWMNWVKQRPDQGLEWIGRIDPYDSETHYNQKFKDKAILTVDKSSSTAYMQLSSLTSEDSAVYYCARGNWDDYWGQGTTLTVSS
VL: DVQITQSPSYLAASPGETITINCRASKSISKDLAWYQEKPGKTNKLLIYSGSTLQSGIPSRFSGSGSGTDFTLTISSLEPEDFAMYYCQQHNKYPYTFGGGTKLEIK
For B3, in assay [3], the binding result was “binds”.
